Data: IntAct's records for PubMed 17576925

B1: Long-distance movement protein (Groundnut rosette virus (strain MC1)), Q67684 (parent)
chain: MDTTPASRGQWPVGIMSSVINVFASGKSCNSGGAPRSSVRRGHRAGAARDKSRGFDAPPRRPKGGVHPATTSKDPNKDIRGPPAPTPHKKYRGPAIPGEGRSGVHTTRPRRRAGRSGGMDPRQLVAQPQQRWAKTEIPTERRAEIDGLLPSLLNTLDGQIQGDAALLRYCVGAIKRELRRRWESVQPAHHVAASSGKPSPQLFNEAAQNAEDLSGDGKGCAGQSVQQEVLHSGSGVPPVCADCGKPAANKW
partner: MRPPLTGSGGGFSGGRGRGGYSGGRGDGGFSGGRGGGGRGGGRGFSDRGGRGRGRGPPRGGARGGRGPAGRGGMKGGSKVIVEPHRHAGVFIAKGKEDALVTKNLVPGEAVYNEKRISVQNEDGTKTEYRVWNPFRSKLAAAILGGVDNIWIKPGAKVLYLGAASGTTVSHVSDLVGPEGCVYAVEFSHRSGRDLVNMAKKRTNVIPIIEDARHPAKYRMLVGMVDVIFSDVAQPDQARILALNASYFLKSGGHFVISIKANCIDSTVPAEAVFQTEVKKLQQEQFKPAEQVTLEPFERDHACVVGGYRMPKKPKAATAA

Variants of: B1
Conditions: with fbrl2_arath FIB2, Q94AH9

Variant	effect of a mutation on the interaction
L149A	disrupting interaction strength
